From the nanobody polyreactivity screen of Harvey et al. (2022)

Experiment: yeast display, Sf9 membrane polyspecificity reagent, FACS + sequencing; frameworks hold sequencing errors
Procedure, shortened: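 Nanobodies came from a synthetic yeast display library in Saccharomyces cerevisiae BJ5465, induced with galactose for 36–48 hours and stained for 1 hour at 4 °C with 10% biotinylated, detergent-solubilized Sf9 membrane reagent. Cells were enriched on streptavidin microbeads and then FACS-sorted, with low and high (top ~1%) gates set on anti-HA fluorescence for expression and streptavidin fluorescence for reagent binding. Each polyreactivity label reflects the gate a clone came from. Genes were amplified by colony PCR, sequenced by MiSeq 2 × 250 and filtered by CDR length.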
For “QVQLVESGGGLVQAGGSLRLSCAASGSTFVVNAMGWYRQAPGKERELVAAIDGSDGSTYYADSVKGRFTISRDNAKNTVYLQMNSLKPEDTAVYYCAAEVLGRPDVENDYWGQGTQVTVSS”, the “polyreactivity (PSR sort gate)” value was “low polyreactivity”.
In the case of “QVQLVESGGGLVQAGGSLRLSCAASGRIFQKNAMGWYRQAAGKERELVAAISGSGSTTNYADSVKGRFTISRDNAKNTVYLQMNSLKPEDTAVYYCATGKRGVSGRGYRYVDYDYWGQGTQVTVSS”, the “polyreactivity (PSR sort gate)” value is reported as “high polyreactivity”.
In the case of “QVQLVESGGGLVQAGGSLRLSCAASGSIFRYNTMGWYRPAPGKERELVATITRRGGSTYYADSVKGRFTISRDNAKNTVYLQMNSLKPEDTAVYYCIADNFGGPYNYWGQGTQVTVSS”, the “polyreactivity (PSR sort gate)” value is reported as “low polyreactivity”.
In the case of “QVQLVESGGGLVQAGGSLRLSCAASGRIFVPYAMGWYRQAPGKERELVAAITWRGGSTYYADSVKGRFTISRDNAKNTVYLQMNSLKPEDTAVYYCNADEASPWFWFSHLQVGMDYWGQGTQVTVSS”, the “polyreactivity (PSR sort gate)” value is reported as “low polyreactivity”.
For “QVQLVESGGGLVQAGGSLRLSCAASGSTFSSYAMGWYRPAPGKERELVARITSGGSTYYADSVKGRFTISRDNAKNTVYLQMNSLKPEDTAVYYCAARGYYYRSRVSQFKYDYWGQGTQVTVSS”, the “polyreactivity (PSR sort gate)” value was “high polyreactivity”.
With “QVHLVESGGGLVQAGGSLRLSCAASVFTFNSNAMGWYRQAPGKERELVAAISWSGGSTYYADSVKGRFTISRDNAKNTVYLLMNSLKPEDTAVYYCAKGYRRVYGPFYYWGQGTQLTVSS” the “polyreactivity (PSR sort gate)” value was “low polyreactivity”.
With “QVQLVESGGGLDQAGGSLRLSCAASGRTNAPYAMGWYRPAPGKERELVAAISGGGSTNYADSVKGRFTISRDNAKNSVYLQMNSLKPEDTAVYSCAADQYHGVGINFRSDYDYWGQGTQVTVSS” the “polyreactivity (PSR sort gate)” value was “low polyreactivity”.
In the case of “QDQLVESGGGLVQAGGSLRLSCAAYGSILGGNAMGWYRPAPGKERELVAAITFSGGGTYYADSVKGRFTISRDNAKNTVYLQMNSMKPEDTAVYYCAADKDGYTYEFDYWGQGTQVTVSS”, the “polyreactivity (PSR sort gate)” value is reported as “low polyreactivity”.
For “QVQLVESGGGLVQAGGSLRLICDASGSTFERYALGWYRQAPGKERELVAAITWGGGSTNYADSVKGRFTISRDNEKNTVYLQMNSLNPEDTAVYYCRPLYLGGDYWGQGTQVTVSS”, the “polyreactivity (PSR sort gate)” value was “low polyreactivity”.
With “QVQLVESGGGLFQEGGSLRLSCAASGRIFSYYAMGWYRQAPGKERELVAGISSGGRTNYADSVKGRFTISRDNAKNTVYLQMNSLKPEDTAVYYCIARSFSLYWAYNYWGQGTQVTVSL” the “polyreactivity (PSR sort gate)” value was “high polyreactivity”.
For “QVQLVESGGGLVQAGGSLRLSCAASGFTFGYYAMGWYRQAPGKERELVAAITFRGGRTYYADSVKGRFTISRDNAKNTVYLQMNSLKPEDTAVYYCAALSLVRYYHNANYYPYYYWGQGTQVTVSS”, the “polyreactivity (PSR sort gate)” value was “high polyreactivity”.
For “QVQLVESGGGLVQAGGSLRLSCAASGSTFNANTMGWYRQAPGKEREFVAAISWTGASTYYADSVKGRFTISRDNAKNTVYLQMNSLKPEDTAVYYCNADYTVADGPYRDGYDYWGQGTQVTVSS”, the “polyreactivity (PSR sort gate)” value was “low polyreactivity”.
In the case of “QVQRVESGGGLVQAGGSLRLSCAASGSILGIYGMGWYRQAPGKERELVAAISYSGGSTYYADSVKGRFTISSDNAKNTVYLQMNSLKPEDNAVYYCAADLTRGVSYYVDFYYWGQGTQVTVSS”, the “polyreactivity (PSR sort gate)” value is reported as “low polyreactivity”.
For “QVQLVESGGGLVQAGGSLRLSCAASGGTLRRYAMGWYRQAPGKERELVAAIIDRSGSTSYADSVKGRFTISRDNAKNTVYLQMNSLKPEDTAVYYCAARTYRTRYYYWGQGTQVTVSS”, the “polyreactivity (PSR sort gate)” value was “high polyreactivity”.
For “QVQLVESGGGLVQAGGSLRLSCAASGRIFNRYAMGWYRQAPGKERELVAAITTSADSTYADSVKGRFTISRDNAKNTVYLQMNSLKPEDTAVYYCNVASRQGSTYDYWGQGTQVTVSS”, the “polyreactivity (PSR sort gate)” value was “high polyreactivity”.
In the case of “QVQLVESGGGLVQAGGSLRLSCAASGSTFKYNTMGWYRQAPGKKGELVAAITISGGTTRYADSVKGRFTISRDNAKNTVYLQMNSLKPEDTAVYYCAARVYTYYYDLHKRYYWGQGTQVTVSS”, the “polyreactivity (PSR sort gate)” value is reported as “high polyreactivity”.
For “QVQLVESGGGLVQAGGSLRLSCAASGRIFRINAMGWYRPAPGKERELVAAITRGGSTNYADSVKGRFTISRDNAKNTVYLQMNSLKPEDTAVYYCAADVSTYYYPGWFKLYLFDYWGQGTQVTVSS”, the “polyreactivity (PSR sort gate)” value was “high polyreactivity”.
With “QVQLVESGGGLVQAGGSLRLSCAASGRTFGQNAMGWYRQAPGKERELVASIRSGGITDYADSVKGRFTISRDNAKNTVYLQMNSLKPEDTAVYYCNDEGVWWSTRYDSWGQGTQVTVSS” the “polyreactivity (PSR sort gate)” value was “low polyreactivity”.
For “QVQLVESGGGLVQAGGSLRLSCASSGKIFLSYAMGWYRQAPGKERELVAGISASGGRTYYADSVKGRFTISRDNAKNTVYLQMNSLKPEDTAVYYCNADTTPQGNVRDGYWGQGTQVTVSS”, the “polyreactivity (PSR sort gate)” value was “high polyreactivity”.
For “QVQLVESGGGLVQAGGSLRLSCAASGFIFNWNTMGWYRQAPGKERELVATMTGSGGSTYADSVKGRFTISRDNAKNTVYLQMNSLKPEDTAVYYCAATRRSFHKYDYWGQGTQVTVSS”, the “polyreactivity (PSR sort gate)” value was “low polyreactivity”.
With “QVQLQESGGGLLQAGGSLRLSYAASGYMFPYLAMGWYRQAPGKEREFVAAIGRGSTNNYADSVKGRFTISRDNAKNTAFQQMNSLKPEDTAVYYCAAAASPLTRHLYWGQGSQVTVSS” the “polyreactivity (PSR sort gate)” value was “low polyreactivity”.
With “QVQLVESGGGLVQAGGSLRLSCAASGSIFKRNDMGWYRQAPGKERELVASISWGGTSTYYADSVKGRLTISRDLAKNTVYLKMYSLKPEDTAVYYCAARGLYTYKTYDDWGQGTLVTVSS” the “polyreactivity (PSR sort gate)” value was “low polyreactivity”.
With “QVQLVESGGGLVQAGGSLRLSCAASGRIFYYNDMGWYRQAPGKERELVAAITWTDDGTYYADSVKGRFTISRDNAKNTVYLQMNSLKPEDTAVYYCAAESFYGFEYWGQGTQVTVSS” the “polyreactivity (PSR sort gate)” value was “low polyreactivity”.
In the case of “QVQLVESGGGLVQAGGSLRLSCAASGGTFPQYAMGWYRQAPGKEREFVADITSRGGTTYYADSVKGRFTISRDNAKNTVYLQMNSLKPEDTAVYYCAAVNVAYSWYDTGYDYWGQGTQVTVSS”, the “polyreactivity (PSR sort gate)” value is reported as “low polyreactivity”.
With “QVHLVESGGGLVQAGGSLRLSSAASGSTFDYYAMGWYRQAPGKERELVAAISVGGGGTTYADSVKGRFTISRDNAKNTVYFQMNCLNPEDTAVYYCAARYRTRKRPGSKYYYWGQGTQVTVSS” the “polyreactivity (PSR sort gate)” value was “high polyreactivity”.
For “QVQLVESGGGLVQAGGSLRLSCAASGRILRRNTMGWYRQAPGKERELVATITRGGGNTYADSVKGRFTISRDNAKNTVYLQMNSLKPEDTAVYYCARAYGSYDYWGQGTQVTVSS”, the “polyreactivity (PSR sort gate)” value was “high polyreactivity”.
For “QVQLVESGGGLVQAGGSLRLSCAASGSTFYINVMGWYIQAPGKERELVAAIRRRGGSTYYADSVKGRFTISRDNEKNTVYLQMNSLKPEDTAVYYCNAFSITFYDFNSWGQGTQVTVSS”, the “polyreactivity (PSR sort gate)” value was “low polyreactivity”.
In the case of “QVQLVESGGGLDQAGGSLRLSCAASGRIFSFNAMGWYRQAPGKERELVAAISWSTGSTFYADSVKGRFTISRDNAKNTVYLQMNSLKPEDTAVYYCAREYYYRRGFFLRGYWGQGTQVTVSS”, the “polyreactivity (PSR sort gate)” value is reported as “high polyreactivity”.
With “QVQLVESGGGLVQAGGSLRLSCAASGSSFDWYVMGWYRQAPGKERELVAVISRSGGSTYYADSVKGRFTISRDNAKITVYLQMNSLTPEDTAVYSCGADSRSYYRDVDYWGQGTQVTVSS” the “polyreactivity (PSR sort gate)” value was “low polyreactivity”.
In the case of “QVQLVESGGGLVQSGGSLRLSCAASGLTFMVYAMGWYRQAPGKEREFVAAITFSGGRTYYADSVKGRFTISRDNAKNTVYLQMNSLKPEDTAVYYCNAEAWSLGYDYWGQGTQVTVSS”, the “polyreactivity (PSR sort gate)” value is reported as “low polyreactivity”.
With “QVQLVESGGGLVQAGGSLRLSCAASGRIFGYYVMGWYRQAPGKERELVAAIRSSADSTYYADSVKGRFTISRDNAKNTVYFQMNSLKPEDTAVYYCAAQSPAYYTKSYWGQGTQVTVSS” the “polyreactivity (PSR sort gate)” value was “low polyreactivity”.
With “QVQLVESGGGLVQAGGSLRLSCAASGSTLPGNVMAWYRQAPGKERELVAAISKRGASTYYADSVKGRFTISRDNAKNTVYLQMNSLKPEDTAVYYCATRTRGSVFRFDYWGQGTQVTVSS” the “polyreactivity (PSR sort gate)” value was “high polyreactivity”.
With “QVKQQESGGGLVKAGGSLRLSCAASGNISNHNDMGRYRQAPGKEREFVAGITAGGITNYADRVKGRCTISRDNAKNTVYLQMNCLKPEETAVYYCAAYADYAKSYGYWGQGTQATVSS” the “polyreactivity (PSR sort gate)” value was “low polyreactivity”.
For “QVQLVESGGGLVQAGGSLRLSCAASGITFGLYAMGWYRQAPGKEREFVAAISRRGGSTSYADSVKGRFTISRDNAKNTVYLQMNSLKPEDTAVYYCDTSYRRTVGGYTYYWGQGTQVTVSS”, the “polyreactivity (PSR sort gate)” value was “high polyreactivity”.
With “QVQRVESGGGLVQAGGSLRLSCAASGSIFSYNAMGWYRQAPGKERELVAAIRASGGDTYYADSVKGRFTISRDNAKNTVYLQMISLKPEDTAVYYCAARTYAHHYASHGYWGQGTQVTVSS” the “polyreactivity (PSR sort gate)” value was “low polyreactivity”.
In the case of “QVQLVESGGGLVQAGGSLRLSCAASGSTFGVNAMGWYRQAPGKERELVASISSGGGTYYADSVKGRFTISRDNAKNTVYLQMNSLKPEDTAVYYCAAVYYWYDSYAGYDYWGQGTQVTVSS”, the “polyreactivity (PSR sort gate)” value is reported as “low polyreactivity”.
In the case of “QVQLVESGGGLVQEGGSLRLSCAASGSIFNTYAMGRYRQAPGKEREMVAGITKTGSRTYYADSVKGRFTISRDNAKNTVYLQIHILKPEDTAVYYCNARIWPRSYRYDYWGQGTQVTVSS”, the “polyreactivity (PSR sort gate)” value is reported as “high polyreactivity”.
For “QVQLVESGGGLVQAGGSLRLSCAASGIIFSRYAMGWYRQAPGKERELDAAISSRGTSTYYADSVKGRFTISRDNAKNTVYLQMNSLKPEDTAVYYCNAVSRPVRHKSTYDYWGQVTQVTVSS”, the “polyreactivity (PSR sort gate)” value was “high polyreactivity”.
With “QVQLVESGGGVVQAGGSLRLSCAASGRIFVRNAMGWYRQAPGKERELVAAISRSGGSTSYADSVKGRFTISRDNAKTTVYLQMNSLKPEDTAVYDCAARYARYQYQYDYWGQGTQVTVSS” the “polyreactivity (PSR sort gate)” value was “high polyreactivity”.
With “QVQLVESGGGLVQAGGSLRLSSAASGGIFWYYTMGWYRQAPGKERELVAAISWSGGRTYYADSVKGRFTISRDNAKNTVYLQMNSLKPEDTAVYYCAANFRGVLGWYHYEYWGQGTQVTVSS” the “polyreactivity (PSR sort gate)” value was “high polyreactivity”.
In the case of “QVQLVESGGGLVQAGGSLRLSCAASGYIFKYYAKGWYRQAPGKERELVAAISWDGTDTYYADSVKGRFTISRDNAKNTVYLQMNSLIPEDTAVYYCNADYDVYGWRNYWGQGTHVTVSS”, the “polyreactivity (PSR sort gate)” value is reported as “low polyreactivity”.
